{"source": "the nanobody polyreactivity screen of Harvey et al. (2022)"}
{"assay": "yeast display, Sf9 membrane polyspecificity reagent, FACS + sequencing; frameworks hold sequencing errors", "outline": "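A nanobody's polyreactivity label depends on the gate it was sorted from. Yeast display cells were stained with 10% biotinylated, detergent-solubilized Sf9 membrane reagent for 1 hour at 4 °C, enriched on streptavidin microbeads and sorted by FACS. The low and high (top ~1%) gates were set on anti-HA fluorescence for expression and streptavidin fluorescence for reagent binding.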"}
{"sequence": "QVQHVESGGGLVQAGGSLRLSCAASGFTIPNYAMGLYRQAPGKERELVAAITSGGGRTNYADSVKGRFTISRDNAKNTVDLQMNSLKPEDTAVYDCAKTRLRGSEFGFWGQGTQVTVSS", "polyreactivity (PSR sort gate)": "low polyreactivity"}
{"sequence": "QVQHVESGGGLVQAGGSLRLSCAASGGIFERKDMGWYRQAHGKERQLVAGISSVGSTNYADSVKWRFTISRDNAKNTVYLQMNSLKPEDTAVYYCAAKRVRALYVGSEGGYWGQGTQVTVSS", "polyreactivity (PSR sort gate)": "low polyreactivity"}
{"sequence": "QVQHVESGGGLVQAGGSLRLSCAASGGIYYQNAMGWYRQAPGKERELVAAISGRGGRTYYADSVKGRFTISRDNAKNTVYLQMNSLKPEDTAVYYCNADQATFSLYHEMDYWGQGTQVTVSS", "polyreactivity (PSR sort gate)": "low polyreactivity"}
{"sequence": "QVQHVESGGGLVQAGGSLRLSCAASGGTFADYTMGWYRQAPGKERELVAAITSSGGSTYYADSVKGRFTISRDNAKNTVYLQMNSLKTEDTAVYYCAALGYVAMGYWGQGTQVTVSS", "polyreactivity (PSR sort gate)": "high polyreactivity"}
{"sequence": "QVQHVESGGGLVQAGGSLRLSCAASGIIFPYNAMGWYRQAPGKERELVAAITGGGSTYYADSVKGRFTISRDNAKNTVYLQMNSLKPEDTAVYYCAADRSGPGYDYWGQGTQVTVSS", "polyreactivity (PSR sort gate)": "low polyreactivity"}
{"sequence": "QVQHVESGGGLVQAGGSLRLSCAASGIIFRDYGMGWYRQAPGKEREFVATITYSGGGTYYADSVKGRFTISRDNAKNTVYLQMNSLKPEDTAVYYCAAYPFYYDLAYDYWGQGTQVTVSS", "polyreactivity (PSR sort gate)": "low polyreactivity"}
{"sequence": "QVQHVESGGGLVQAGGSLRLSCAASGITFWSNAKGWYRQAPGKEREMVAAITSSGGSTYYADSVKGRFTISRDNAKNTVYLHMNSLKPEDTAVYYCAAPISSSAGWDSYDYWGQGTQVTVSS", "polyreactivity (PSR sort gate)": "low polyreactivity"}
{"sequence": "QVQHVESGGGLVQAGGSLRLSCAASGLNFTRYVMGWYRQAPGKERELVAVISSGGSTYYADSVKGRFTISRDNAKNTVYLQMNSLKPEDTAVYYCAAYLRYSQVTYDYWGQGTQVTVSS", "polyreactivity (PSR sort gate)": "high polyreactivity"}
{"sequence": "QVQHVESGGGLVQAGGSLRLSCAASGLTSVINAMGWYRQAPGKERELVAAMTNGGSTSYADSVKGRFTISRDNAKNPVYLQMNSLKPEDTAVYYWAADIVSSTDYPFDYWGQGTQVTVSS", "polyreactivity (PSR sort gate)": "low polyreactivity"}
{"sequence": "QVQHVESGGGLVQAGGSLRLSCAASGNIFGLNAMGWYRQAPGKERELVAAISKSGGSTFYADSVKGRFTISRDNAKNTVYLQMNSLKPEDTAVYYCAADHRYHWAYPRGYYYWGQGTQVTVSS", "polyreactivity (PSR sort gate)": "high polyreactivity"}
{"sequence": "QVQHVESGGGLVQAGGSLRLSCAASGNIIPYNAKAWYRQAPGKERELVATISSGGSTYYADSVKGRFTISRDNAKNTVYLQMNSLKPEDTAVYYCAARGRYPYLYGYWGQGTQVTVSS", "polyreactivity (PSR sort gate)": "high polyreactivity"}
{"sequence": "QVQHVESGGGLVQAGGSLRLSCAASGRIFAYNAMGWYRQAPGKERELVADISSGGNTYYADSVKGRFTISRDNAKNTVYLQMNSLKPEDTAVYYCAADIALYTHYHRIFDYWGQGTQVTVSS", "polyreactivity (PSR sort gate)": "low polyreactivity"}
{"sequence": "QVQHVESGGGLVQAGGSLRLSCAASGRIFPAYAMGWYRQATGKERELVATISSTGSRSYYADSVKGRFTISRDNAKNTVYLQMNSLKPEDTAVYYCAARQRYKVGGLYGVDYWGQGTQVTVSS", "polyreactivity (PSR sort gate)": "high polyreactivity"}
{"sequence": "QVQHVESGGGLVQAGGSLRLSCAASGRIFSGYAMGWYRQAPGKERELVAAINRSGGSTYYADSVKGRFTISRDNAKNTVYLQMNSLKPDDTAVYYCAADKSDVYGYFRQSESYGYWGQGTQVTVSS", "polyreactivity (PSR sort gate)": "low polyreactivity"}
{"sequence": "QVQHVESGGGLVQAGGSLRLSCAASGRIFTTYAMGWYIQAPGKERELVAAISRSGGSTYYADSVKGRFTISRDNAKNTVYLQMNSLKPEDTAVYYCAAVPTSNSFRSSFYYWGQGTQVTVSS", "polyreactivity (PSR sort gate)": "high polyreactivity"}
{"sequence": "QVQHVESGGGLVQAGGSLRLSCAASGRIFYFNAMGWYRPAPGKERELVAAISSSSGSTNYADSVQGRFTISRDNAKNTVYLQMNSLKPEATAVYYCAADGYYQDYTFEYDYWGQGTQVTVSS", "polyreactivity (PSR sort gate)": "low polyreactivity"}
{"sequence": "QVQHVESGGGLVQAGGSLRLSCAASGRIFYNYAMGWYRQAPGKEREFVADIDFNGGSTYYADSGKGRFTISRDNAKTTVYLQMNSLKPDDTAVYYSAAEQDDARYNAWWIGPMYSWGQGTQVTVSS", "polyreactivity (PSR sort gate)": "low polyreactivity"}
{"sequence": "QVQHVESGGGLVQAGGSLRLSCAASGRIFYSNVMGWYRQAPGKERELVAAISGRTGGTYYADSEKGRFTISRDNAKNTVYLQMNSMKPEDTAVYFCAARVIYYYGSGPYDYWGQGTQVTVSS", "polyreactivity (PSR sort gate)": "low polyreactivity"}
{"sequence": "QVQHVESGGGLVQAGGSLRLSCAASGRIISYNAMGWYRQAPGKERELVAAISWGGGSTYYADSVKGRFTISRDNAKNTVYLQMNSLKPEDTAVYYCAKGWYRIKRNDYWGQGTQVTVSS", "polyreactivity (PSR sort gate)": "low polyreactivity"}
{"sequence": "QVQHVESGGGLVQAGGSLRLSCAASGRTFDWNAMGWYRQAPGKERELVAAITYSGGGTYYADSVKGRFTISRDNAKNTVYLQMNSLKPEETAVYYCAAGYPGTWSYYYWGQGTQVTVSS", "polyreactivity (PSR sort gate)": "low polyreactivity"}
{"sequence": "QVQHVESGGGLVQAGGSLRLSCAASGRTFHQNAMGWYRQAPGKERELVATITAGSGSTYYADSVKGRFTISGDNAKNTVYLQMNSVKPEDTAVYFWNAKWTLYQSDYWYYIYDYCGQGTQVTVSS", "polyreactivity (PSR sort gate)": "low polyreactivity"}
{"sequence": "QVQHVESGGGLVQAGGSLRLSCAASGRTFKYYAMGWDRQAPGKERELVAAITRRGTSTYYADSVKGRFTISRDNAKNTVYLQMNSLKPEDTAVYYCNKDSPVTYSSRYGYWGQGTQVTVSS", "polyreactivity (PSR sort gate)": "high polyreactivity"}
{"sequence": "QVQHVESGGGLVQAGGSLRLSCAASGRTFNLKAMGWYRQAPGKERELVAAISWSGGSTYYADSVKGRFTISRDNAKNTVYLQMNSLKPEDTAVYYCAAETYAYLFHTYDYWGQGTQVTVSS", "polyreactivity (PSR sort gate)": "low polyreactivity"}
{"sequence": "QVQHVESGGGLVQAGGSLRLSCAASGRTFPLNAMGWYRQAPGKERELVYAITWSGGRTYYADSVKGRFTISRDYAKNTVYLQMNSLKPEDTAVYYCAAKRTTWKIQSGYDYWGQGTQVTVSS", "polyreactivity (PSR sort gate)": "low polyreactivity"}
{"sequence": "QVQHVESGGGLVQAGGSLRLSCAASGRTFRDYVMGWYRQAPGKETALVAAISTRGASTYYADSVKGRFTISRDNANNTVYLQMNRLKPEDTAVYYCAARSTRRGNEYDYWGQRTQVTVSS", "polyreactivity (PSR sort gate)": "high polyreactivity"}
{"sequence": "QVQHVESGGGLVQAGGSLRLSCAASGRTFRRNVMGWYRQAPGKERELVAAISSGANTNYADSVKGRFTISRDNAKNTVYLQMNSLKPEDTAVYYCNARWQEPLKYDYWGQGTQVTVSS", "polyreactivity (PSR sort gate)": "low polyreactivity"}
{"sequence": "QVQHVESGGGLVQAGGSLRLSCAASGRTFTHYAMGWYRQAPGKERELVAVITTGGSTYYADSVKGRFTISRDNAKNTVYLQMNSLKPEDTAVYYCAATALSGLGYWGQGTQVTVSS", "polyreactivity (PSR sort gate)": "low polyreactivity"}
{"sequence": "QVQHVESGGGLVQAGGSLRLSCAASGRTLLGNAMGRYRQAPGKEREFVAAISYRGGSTYYADSVKGRFTISRDNAKNTVYLQMNSLKPEDTAVYYCAASSFKYSRFDYWGQGTQVTVSS", "polyreactivity (PSR sort gate)": "low polyreactivity"}
{"sequence": "QVQHVESGGGLVQAGGSLRLSCAASGRTLRYYAMGGYRRAPGKERELVAAITKSGGSPYYADSVKGRFTISRDNAKNTVYLQMYSLKPEDTAVYYCNKVTYSRAQYIGGAGYYWGQGTQVTVSS", "polyreactivity (PSR sort gate)": "high polyreactivity"}
{"sequence": "QVQHVESGGGLVQAGGSLRLSCAASGSIFAGYAMGWYRQAPGKEWELVAAISRRGGRKYYADSVKGRFTISRDNAKNTVYLQMNSLKPEDTAVYYCAVTTPRGPYGYDYWGQGTQVTVSS", "polyreactivity (PSR sort gate)": "high polyreactivity"}
{"sequence": "QVQHVESGGGLVQAGGSLRLSCAASGSIFAGYANGWYRKAPGKERELVARITDRGGSTDYADSVKGRYTISRDNAKNTVYLQMNSLKPEDTAVYSCAKRGDRYEKRPRDYWGQGTQVTVSS", "polyreactivity (PSR sort gate)": "low polyreactivity"}
{"sequence": "QVQHVESGGGLVQAGGSLRLSCAASGSIFAYNAMGCYRQARGKERELVAAITSSGGSTYYADSVKGRFTISRDNAKNTVYLPMNSLKPEDTAVYYCNAYGYFKKYNYWGQGTQVTVSS", "polyreactivity (PSR sort gate)": "high polyreactivity"}
{"sequence": "QVQHVESGGGLVQAGGSLRLSCAASGSIFGTYAMGWYRQAPGKERELVAAIRWSSGSTYYADSVKGRFTISRDNAKYTVYLLMNSLKPEDTAVYYCNAEYVYYWLGATFGYWGQGTQVTVSS", "polyreactivity (PSR sort gate)": "high polyreactivity"}
{"sequence": "QVQHVESGGGLVQAGGSLRLSCAASGSIFIANAMGWYRQAPGKERELVAVINWGDGSTYADSVKGRFTISRDNAKNTVYLQMNSLKPEDTAVYYCNAPDEVNDVRYDYWGQGTQVTVSS", "polyreactivity (PSR sort gate)": "low polyreactivity"}
{"sequence": "QVQHVESGGGLVQAGGSLRLSCAASGSIFKPYAMGWYRLAPGKEREFVAAITSSDGTTYYADSVKGRFTISRDNAKNTVYVQMNSLKPEDTAVYYCNAEYYAKYVPFTKYYYWGQGTQVTVSS", "polyreactivity (PSR sort gate)": "low polyreactivity"}
{"sequence": "QVQHVESGGGLVQAGGSLRLSCAASGSIFNYYDMGWYRQAPGKEREFVARITIGGSSTNYADSVKGRFTISRDNAKNTVYLQMNSLTPEDTAVYYCAAAQYGIFFSQMDYWGQGTQVTVSS", "polyreactivity (PSR sort gate)": "low polyreactivity"}
{"sequence": "QVQHVESGGGLVQAGGSLRLSCAASGSIFRIYAMGWYRQAPGKERELVAAISVSTGSRTYYADSVKGRFTISRDNAKNTVYLQMNSLKPEDTAVYYCNAESYYDYNYWGQGTQVTVSS", "polyreactivity (PSR sort gate)": "low polyreactivity"}
{"sequence": "QVQHVESGGGLVQAGGSLRLSCAASGSIFRKNAMGWYRQAPGKERELVAAISSGGGGTYYADSVKGRFTISRDNAKNTVYLQMNSLKPEDTAVFYCNKREGKGGNTKYDYWGQGTQVTVSS", "polyreactivity (PSR sort gate)": "low polyreactivity"}
{"sequence": "QVQHVESGGGLVQAGGSLRLSCAASGSIFRYYTMGWYRQAPGKERELVAAISYSGGRTYYADSVKGRFTISRDNAKNTVYLQMNSLKPEDTAVYYCAAKLLQLRGRGYEYWGQGTQVTVSS", "polyreactivity (PSR sort gate)": "high polyreactivity"}
{"sequence": "QVQHVESGGGLVQAGGSLRLSCAASGSIFRYYVMGWYSQAPGKERELGAAISSGGRTYYADSVKGRFTISRDNAKNTVYLQMNSLKPEDTAVYYCNAQGLFYWEMDYWGQGTQVTVSS", "polyreactivity (PSR sort gate)": "high polyreactivity"}
{"sequence": "QVQHVESGGGLVQAGGSLRLSCAASGSILGGNAMGWYRQAPGKERELVADISGSGDSTYYADSVKGRFTISRDNAKNTVYLQMNSLKPEETAVYYCAVDYDSYWYGTYVNEYDYWGQGTQVTVSS", "polyreactivity (PSR sort gate)": "low polyreactivity"}
{"sequence": "QVQHVESGGGLVQAGGSLRLSCAASGSILRPNVMGWYRQAPGKDRELVARISSRGVNTYYADSVKGRFTISRDNAKNTVYLQMNSLKPEDTAVYYCNARRAQYYWNRSPKYDYWGQGTQVTVSP", "polyreactivity (PSR sort gate)": "high polyreactivity"}
{"sequence": "QVQHVESGGGLVQAGGSLRLSCAASGSTFGKNTRGWSRQAPGKERELVAAISSRGGSTYYADSGKGRFTISRDNAKNTVYLQMNSLKPEDTAVYYCAAYSVSLGYDYWGQGTQVTVST", "polyreactivity (PSR sort gate)": "high polyreactivity"}
